Laboratory results taken from patent US20230049529A1 (ALNYLAM PHARMACEUTICALS, published 2023).

What was measured:
human SLAMF7 [1] = target: T1, human SLAMF7 (human, UniProt Q9NQ25 23-335); test: flow cytometry on MM cell lines U-266, NCI-H929, RPMI-8226; negative control
T1 construct: whole, on cells; Cell surface antigen targeted on human MM cell lines in flow cytometry; also called CS-1
Method: (§1) Flow cytometry: In a V-bottom 96-well plate (Corning), 100,000 cells per well were dispensed. The cells were washed with 200 μL flow cytometry buffer (PBS, 2% (v/v) FBS, 0.01% (w/v) NaN₃, pH 7.4), incubated with DVD-IgG1 or IgG1 (50 μL of a 20 nM solution in PBS) for 30 min on ice, washed with 200 μL ice-cold flow cytometry buffer, and stained with Alexa Fluor 647 conjugated polyclonal (Fab′)₂ donkey anti-human Fc (Jackson ImmunoResearch Laboratories) for 20 min on ice. After washing twice with 200 μL ice-cold flow cytometry buffer, the cells were analyzed using a Canto II Flow Cytometer (Becton-Dickinson). Data were analyzed using FlowJo software (Tree Star).

human CD138 [2] = target: T2, human CD138 (human, UniProt P18827 23-310); test: as above
T2 construct: whole, on cells; Cell surface antigen targeted on human MM cell lines in flow cytometry
T2 sequence (looked up): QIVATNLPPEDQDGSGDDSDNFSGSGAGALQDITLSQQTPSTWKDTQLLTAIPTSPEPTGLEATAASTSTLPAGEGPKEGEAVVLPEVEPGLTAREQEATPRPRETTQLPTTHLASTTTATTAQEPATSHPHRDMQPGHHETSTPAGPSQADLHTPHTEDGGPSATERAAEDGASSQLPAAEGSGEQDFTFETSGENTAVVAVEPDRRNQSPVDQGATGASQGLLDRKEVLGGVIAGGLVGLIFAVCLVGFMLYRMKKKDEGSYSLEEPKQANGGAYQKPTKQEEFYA
Method: as §1

[3] = target: T3, human B-cell maturation antigen (BCMA) (human, UniProt Q02223 1-184); test: flow cytometry on cells; cell line and concentration not printed on the sheet (methods paragraph 609)
T3 construct: whole, on cells; Cell surface antigen targeted on human MM cell lines in flow cytometry
T3 sequence (looked up): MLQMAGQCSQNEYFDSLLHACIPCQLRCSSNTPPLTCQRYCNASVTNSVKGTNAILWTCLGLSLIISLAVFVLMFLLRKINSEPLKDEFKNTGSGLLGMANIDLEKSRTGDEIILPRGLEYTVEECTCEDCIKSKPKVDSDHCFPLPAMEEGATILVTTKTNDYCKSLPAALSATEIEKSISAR
Method: Flow cytometry: During the process of flow cytometry, 100,000 cells were dispensed in each well of a V-bottom 96-well plate (Corning) and washed with 150 μL of flow cytometry buffer (PBS, 2% (v/v) FBS, 0.01% (w/v) NaN₃, pH 7.4). Subsequently, the cells were incubated with the antibodies (200 nM in 50 μL PBS) for 1 h on ice, followed by 3 rounds of washing (200 μL flow buffer). Finally, the cells were stained with R-Phycoerythrin AffiniPure F(ab′)₂ Fragment Goat Anti-Human IgG, F(ab′)₂ fragment specific (for Fabs and IgG1 or IgG1 ARCs), or R-Phycoerythrin AffiniPure F(ab′)₂ Fragment Donkey Anti-Human IgM, Fc5μ fragment specific (IgM or IgM ARCs) purchased from Jackson ImmunoResearch Laboratories for 30 min on ice. After 3 rounds of washing, the cells were passed through a BD FACSCanto™ II and the data were extracted and analyzed via FlowJo software.

human SLAMF7 [4] = target: T1, human SLAMF7; test: flow cytometry on MM cell lines U-266, NCI-H929, RPMI-8226; DVD-IgG1 at 20 nM, Alexa Fluor 647 anti-human Fc; curve assigned by grey tone only
Method: as §1

human CD138 [5] = target: T2, human CD138; test: flow cytometry on MM cell lines U-266, NCI-H929, RPMI-8226; DVD-IgG1 at 20 nM, Alexa Fluor 647 anti-human Fc
Method: as §1

B1: h38C2 IgG1 (antibody, V domains shown)
VH: EVQLVESGGGLVQPGGSLRLSCAASGFTFSNYWMSWVRQSPEKGLEWVSEIRLRSDNYATHYAESVKGRFTISRDNSKNTLYLQMNSLRAEDTGIYYCKTYFYSFSYWGQGTLVTVSS
VL: ELQMTQSPSSLSASVGDRVTITCRSSQSLLHTYGSPYLNWYLQKPGQSPKLLIYKVSNRFSGVPSRFSGSGSGTDFTLTISSLQPEDFAVYFCSQGTHLPYTFGGGTKVEIKR
notes: also called humanized 38C2 IgG1
Q: Does B1 bind (human SLAMF7 [1])?
A: no binding (tested: 20 nM (single concentration))

Q: Does B1 bind (human CD138 [2])?
A: no binding (tested: 20 nM (single concentration))

B2: Anti-BCMA DVD-IgG1 (2) (antibody)
light: DIQMTQSPSSLSASVGDRVTITCSASQDISNYLNWYQQKPGKAPKLLIYYTSNLHSGVPSRFSGSGSGTDFTLTISSLQPEDFATYYCQQYRKLPWTFGQGTKLEIKASTKGPELQMTQSPSSLSASVGDRVTITCRSSQSLLHTYGSPYLNWYLQKPGQSPKLLIYKVSNRFSGVPSRFSGSGSGTDFTLTISSLQPEDFAVYFCSQGTHLPYTFGGGTKVEIKRTVAAPSVFIFPPSDEQLKSGTASVVCLLNNFYPREAKVQWKVDNALQSGNSQESVTEQDSKDSTYSLSSTLTLSKADYEKHKVYACEVTHQGLSSPVTKSFNRGEC
heavy: not shown
notes: Dual variable domain IgG1: outer anti-BCMA Fv, ASTKGP spacer, inner h38C2 Fv, human IgG1 and kappa constant domains
Q: Does B2 bind [3]?
A: binds

B3: Anti-SLAMF7 DVD-IgG1 (1) (antibody)
light: DIQMTQSPSSLSASVGDRVTITCKASQDVGIAVAWYQQKPGKVPKLLIYWASTRHTGVPDRFSGSGSGTDFTLTISSLQPEDVATYYCQQYSSYPYTFGQGTKVEIKASTKGPELQMTQSPSSLSASVGDRVTITCRSSQSLLHTYGSPYLNWYLQKPGQSPKLLIYKVSNRFSGVPSRFSGSGSGTDFTLTISSLQPEDFAVYFCSQGTHLPYTFGGGTKVEIKRTVAAPSVFIFPPSDEQLKSGTASVVCLLNNFYPREAKVQWKVDNALQSGNSQESVTEQDSKDSTYSLSSTLTLSKADYEKHKVYACEVTHQGLSSPVTKSFNRGEC
heavy: not shown
notes: Dual variable domain IgG1: outer anti-SLAMF7 Fv, ASTKGP spacer, inner h38C2 Fv, human IgG1 and kappa constant domains
Q: Does B3 bind (human SLAMF7 [4])?
A: binds

B4: Anti-CD138 DVD-IgG1 (3) (antibody)
light: DIQMTQSTSSLSASLGDRVTISCSASQGINNYLNWYQQKPDGTVELLIYYTSTLQSGVPSRFSGSGSGTDYSLTISNLEPEDIGTYYCQQYSKLPRTFGGGTKLEIKASTKGPELQMTQSPSSLSASVGDRVTITCRSSQSLLHTYGSPYLNWYLQKPGQSPKLLIYKVSNRFSGVPSRFSGSGSGTDFTLTISSLQPEDFAVYFCSQGTHLPYTFGGGTKVEIKRTVAAPSVFIFPPSDEQLKSGTASVVCLLNNFYPREAKVQWKVDNALQSGNSQESVTEQDSKDSTYSLSSTLTLSKADYEKHKVYACEVTHQGLSSPVTKSFNRGEC
heavy: not shown
notes: Dual variable domain IgG1: outer anti-CD138 Fv, ASTKGP spacer, inner h38C2 Fv, human IgG1 and kappa constant domains
Q: Does B4 bind (human CD138 [5])?
A: binds
